Source: patent US20180155451A1 (published 2018)

T1: FcγRIIb extracellular domain with C-terminal His tag (human, UniProt P31994 43-217)
T1 construct: extracellular domain; also called FcgRIIb; 2b; not shown: His tag attached to the C terminus
T1 sequence (looked up): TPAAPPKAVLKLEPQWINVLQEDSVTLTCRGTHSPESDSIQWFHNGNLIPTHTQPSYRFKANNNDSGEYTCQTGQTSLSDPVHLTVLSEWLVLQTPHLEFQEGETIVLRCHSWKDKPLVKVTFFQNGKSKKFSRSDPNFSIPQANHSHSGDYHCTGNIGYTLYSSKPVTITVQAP


Columns and labels:
[1] = target: T2, FcγRIIIa extracellular domain with C-terminal His tag (human, UniProt P08637 17-208); assay: SPR (Biacore); He/Con_3a divided by He/Con_2b (reference: binding to FcγRIIb)
T2 construct: extracellular domain; also called FcgRIIIa; 3a; not shown: His tag attached to the C terminus
T2 sequence (P08637 17-208): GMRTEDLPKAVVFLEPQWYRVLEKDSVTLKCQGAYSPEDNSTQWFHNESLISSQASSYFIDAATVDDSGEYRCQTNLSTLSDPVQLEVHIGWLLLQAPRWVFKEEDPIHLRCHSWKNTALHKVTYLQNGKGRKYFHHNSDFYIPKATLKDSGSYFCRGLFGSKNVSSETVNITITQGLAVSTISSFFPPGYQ
Method: (§1) Analysis of interaction between objective antibody and the FcγR was carried out using Biacore T100 (GE Healthcare). HBS-EP+ (GE Healthcare) was used as the running buffer, and the measurement temperature was set to 25° C. Chips produced by immobilizing the antigen peptide by the amine coupling method to a Series S Sencor Chip CM5 (GE Healthcare), or alternatively, chips produced by allowing preliminarily biotinylated antigen peptides to interact with and immobilize onto a Series S Sensor Chip SA (certified) (GE Healthcare) were used. Antibodies of interest were captured onto an antigen peptide-immobilized chip, and allowed to interact to each FcγR diluted with running buffer. To regenerate and repeatedly use the chip, the antibodies captured on the chip were washed off by reacting 10 mM glycine-HCl, pH 1.5.
(§2) The FcγR-binding activity of each antibody was assessed primarily using as an indicator the FcγR-binding activity and dissociation constant for FcγR.

[2] = target: T2, FcγRIIIa extracellular domain with …; assay: SPR (Biacore), relative binding
Method: as §1, §2

[3] = target: T1, FcγRIIb extracellular domain with …; assay: SPR (Biacore), relative binding
Method: as §1, §2

Binder	He_3a/2b (IIIa/IIb) [1] [ratio]	He/Con_3a (IIIa binding) [2]	He/Con_2b (IIb binding) [3]
GpH7-A5/GpH7-B3 variant A327_14T/GpL16-k0 (antibody, human IgG1, kappa, Heterodimerized IgG1; alteration in one H chain only; also called He Ab) heavy 1: not shown heavy 2: not shown light: DIVMTQSPLSLPVTPGEPASISCQASESLVHSNRNTYLHWYLQKPGQSPQLLIYKVSNRFSGVPDRFSGSGSGTDFTLKISRVEAEDVGVYYCSQNTHVPPTFGQGTKVEIERTVAAPSVFIFPPSDEQLKSGTASVVCLLNNFYPREAKVQWKVDNALQSGNSQESVTEQDSKDSTYSLSSTLTLSKADYEKHKVYACEVTHQGLSSPVTKSFNRGEC	0.46	41.4 % of GpH7-A5/GpH7-B3/GpL16-k0 (=100)	89.4 % of GpH7-A5/GpH7-B3/GpL16-k0 (=100)
GpH7-A5/GpH7-B3 variant A327_16H/GpL16-k0 (antibody, human IgG1, kappa, Heterodimerized IgG1; alteration in one H chain only; also called He Ab) heavy 1: not shown heavy 2: not shown light: DIVMTQSPLSLPVTPGEPASISCQASESLVHSNRNTYLHWYLQKPGQSPQLLIYKVSNRFSGVPDRFSGSGSGTDFTLKISRVEAEDVGVYYCSQNTHVPPTFGQGTKVEIERTVAAPSVFIFPPSDEQLKSGTASVVCLLNNFYPREAKVQWKVDNALQSGNSQESVTEQDSKDSTYSLSSTLTLSKADYEKHKVYACEVTHQGLSSPVTKSFNRGEC	0.69	43.7 % of GpH7-A5/GpH7-B3/GpL16-k0 (=100)	63.5 % of GpH7-A5/GpH7-B3/GpL16-k0 (=100)
GpH7-A5/GpH7-B3 variant K326_06M/GpL16-k0 (antibody, human IgG1, kappa, Heterodimerized IgG1; alteration in one H chain only; also called He Ab) heavy 1: not shown heavy 2: not shown light: DIVMTQSPLSLPVTPGEPASISCQASESLVHSNRNTYLHWYLQKPGQSPQLLIYKVSNRFSGVPDRFSGSGSGTDFTLKISRVEAEDVGVYYCSQNTHVPPTFGQGTKVEIERTVAAPSVFIFPPSDEQLKSGTASVVCLLNNFYPREAKVQWKVDNALQSGNSQESVTEQDSKDSTYSLSSTLTLSKADYEKHKVYACEVTHQGLSSPVTKSFNRGEC	0.7	115 % of GpH7-A5/GpH7-B3/GpL16-k0 (=100)	165 % of GpH7-A5/GpH7-B3/GpL16-k0 (=100)
GpH7-A5/GpH7-B3 variant A327_20W/GpL16-k0 (antibody, human IgG1, kappa, Heterodimerized IgG1; alteration in one H chain only; also called He Ab) heavy 1: not shown heavy 2: not shown light: DIVMTQSPLSLPVTPGEPASISCQASESLVHSNRNTYLHWYLQKPGQSPQLLIYKVSNRFSGVPDRFSGSGSGTDFTLKISRVEAEDVGVYYCSQNTHVPPTFGQGTKVEIERTVAAPSVFIFPPSDEQLKSGTASVVCLLNNFYPREAKVQWKVDNALQSGNSQESVTEQDSKDSTYSLSSTLTLSKADYEKHKVYACEVTHQGLSSPVTKSFNRGEC	0.65	51.2 % of GpH7-A5/GpH7-B3/GpL16-k0 (=100)	78.8 % of GpH7-A5/GpH7-B3/GpL16-k0 (=100)

Further lines, results first:

He_3a/2b (IIIa/IIb) [1] [ratio]	He/Con_3a (IIIa binding) [2]	He/Con_2b (IIb binding) [3]	Binder
0.7	139 % of GpH7-A5/GpH7-B3/GpL16-k0 (=100)	199 % of GpH7-A5/GpH7-B3/GpL16-k0 (=100)	GpH7-A5/GpH7-B3 variant K326_07I/GpL16-k0 (antibody, human IgG1, kappa, Heterodimerized IgG1; alteration in one H chain only; also called He Ab) heavy 1: not shown heavy 2: not shown light: DIVMTQSPLSLPVTPGEPASISCQASESLVHSNRNTYLHWYLQKPGQSPQLLIYKVSNRFSGVPDRFSGSGSGTDFTLKISRVEAEDVGVYYCSQNTHVPPTFGQGTKVEIERTVAAPSVFIFPPSDEQLKSGTASVVCLLNNFYPREAKVQWKVDNALQSGNSQESVTEQDSKDSTYSLSSTLTLSKADYEKHKVYACEVTHQGLSSPVTKSFNRGEC
0.76	106 % of GpH7-A5/GpH7-B3/GpL16-k0 (=100)	139 % of GpH7-A5/GpH7-B3/GpL16-k0 (=100)	GpH7-A5/GpH7-B3 variant K326_19Q/GpL16-k0 (antibody, human IgG1, kappa, Heterodimerized IgG1; alteration in one H chain only; also called He Ab) heavy 1: not shown heavy 2: not shown light: DIVMTQSPLSLPVTPGEPASISCQASESLVHSNRNTYLHWYLQKPGQSPQLLIYKVSNRFSGVPDRFSGSGSGTDFTLKISRVEAEDVGVYYCSQNTHVPPTFGQGTKVEIERTVAAPSVFIFPPSDEQLKSGTASVVCLLNNFYPREAKVQWKVDNALQSGNSQESVTEQDSKDSTYSLSSTLTLSKADYEKHKVYACEVTHQGLSSPVTKSFNRGEC
0.57	84.8 % of GpH7-A5/GpH7-B3/GpL16-k0 (=100)	148 % of GpH7-A5/GpH7-B3/GpL16-k0 (=100)	GpH7-A5/GpH7-B3 variant K326_20W/GpL16-k0 (antibody, human IgG1, kappa, Heterodimerized IgG1; alteration in one H chain only; also called He Ab) heavy 1: not shown heavy 2: not shown light: DIVMTQSPLSLPVTPGEPASISCQASESLVHSNRNTYLHWYLQKPGQSPQLLIYKVSNRFSGVPDRFSGSGSGTDFTLKISRVEAEDVGVYYCSQNTHVPPTFGQGTKVEIERTVAAPSVFIFPPSDEQLKSGTASVVCLLNNFYPREAKVQWKVDNALQSGNSQESVTEQDSKDSTYSLSSTLTLSKADYEKHKVYACEVTHQGLSSPVTKSFNRGEC
0.69	134 % of GpH7-A5/GpH7-B3/GpL16-k0 (=100)	193 % of GpH7-A5/GpH7-B3/GpL16-k0 (=100)	GpH7-A5/GpH7-B3 variant K326_09D/GpL16-k0 (antibody, human IgG1, kappa, Heterodimerized IgG1; alteration in one H chain only; also called He Ab) heavy 1: not shown heavy 2: not shown light: DIVMTQSPLSLPVTPGEPASISCQASESLVHSNRNTYLHWYLQKPGQSPQLLIYKVSNRFSGVPDRFSGSGSGTDFTLKISRVEAEDVGVYYCSQNTHVPPTFGQGTKVEIERTVAAPSVFIFPPSDEQLKSGTASVVCLLNNFYPREAKVQWKVDNALQSGNSQESVTEQDSKDSTYSLSSTLTLSKADYEKHKVYACEVTHQGLSSPVTKSFNRGEC
0.7	112 % of GpH7-A5/GpH7-B3/GpL16-k0 (=100)	159 % of GpH7-A5/GpH7-B3/GpL16-k0 (=100)	GpH7-A5/GpH7-B3 variant K326_15Y/GpL16-k0 (antibody, human IgG1, kappa, Heterodimerized IgG1; alteration in one H chain only; also called He Ab) heavy 1: not shown heavy 2: not shown light: DIVMTQSPLSLPVTPGEPASISCQASESLVHSNRNTYLHWYLQKPGQSPQLLIYKVSNRFSGVPDRFSGSGSGTDFTLKISRVEAEDVGVYYCSQNTHVPPTFGQGTKVEIERTVAAPSVFIFPPSDEQLKSGTASVVCLLNNFYPREAKVQWKVDNALQSGNSQESVTEQDSKDSTYSLSSTLTLSKADYEKHKVYACEVTHQGLSSPVTKSFNRGEC
